Assay [1] addresses C10-DDB1M381/2. Put plainly: tripartite Nanoluc system (luciferase complementation). The note with it: HepG2 cells; co-transfected with a plasmid expressing Nano1-7; luciferase activity measured 48 h post-transfection; parent: 100%.
Assay [2] concerns the target C10-DDB1 (UniProt Q16531). The assay is described as above. The note with it: HepG2 cells; co-transfected with a plasmid expressing Nano1-7; luciferase activity measured 48 h post-transfection; parent: 100%.
The target of assay [3] is C10-STAU1 with the RBD2 domain deleted (UniProt O95793). Description: split reporter (BiFC, NanoBiT); tripartite Nanoluc luciferase: C10-tagged and N8-tagged proteins co-transfected with a plasmid expressing Nano1-7 into HepG2 cells; luciferase activity measured 48 h post-transfection.
Assay [4] addresses N8-HBx (UniProt P03165). Description: tripartite Nanoluc system (luciferase complementation). The following applies: HepG2 cells; co-transfected with a plasmid expressing Nano1-7; luciferase activity measured 48 h post-transfection; parent: 100%.

Sequence of C10-DDB1 (Q16531 whole entry, the tested form may be a part): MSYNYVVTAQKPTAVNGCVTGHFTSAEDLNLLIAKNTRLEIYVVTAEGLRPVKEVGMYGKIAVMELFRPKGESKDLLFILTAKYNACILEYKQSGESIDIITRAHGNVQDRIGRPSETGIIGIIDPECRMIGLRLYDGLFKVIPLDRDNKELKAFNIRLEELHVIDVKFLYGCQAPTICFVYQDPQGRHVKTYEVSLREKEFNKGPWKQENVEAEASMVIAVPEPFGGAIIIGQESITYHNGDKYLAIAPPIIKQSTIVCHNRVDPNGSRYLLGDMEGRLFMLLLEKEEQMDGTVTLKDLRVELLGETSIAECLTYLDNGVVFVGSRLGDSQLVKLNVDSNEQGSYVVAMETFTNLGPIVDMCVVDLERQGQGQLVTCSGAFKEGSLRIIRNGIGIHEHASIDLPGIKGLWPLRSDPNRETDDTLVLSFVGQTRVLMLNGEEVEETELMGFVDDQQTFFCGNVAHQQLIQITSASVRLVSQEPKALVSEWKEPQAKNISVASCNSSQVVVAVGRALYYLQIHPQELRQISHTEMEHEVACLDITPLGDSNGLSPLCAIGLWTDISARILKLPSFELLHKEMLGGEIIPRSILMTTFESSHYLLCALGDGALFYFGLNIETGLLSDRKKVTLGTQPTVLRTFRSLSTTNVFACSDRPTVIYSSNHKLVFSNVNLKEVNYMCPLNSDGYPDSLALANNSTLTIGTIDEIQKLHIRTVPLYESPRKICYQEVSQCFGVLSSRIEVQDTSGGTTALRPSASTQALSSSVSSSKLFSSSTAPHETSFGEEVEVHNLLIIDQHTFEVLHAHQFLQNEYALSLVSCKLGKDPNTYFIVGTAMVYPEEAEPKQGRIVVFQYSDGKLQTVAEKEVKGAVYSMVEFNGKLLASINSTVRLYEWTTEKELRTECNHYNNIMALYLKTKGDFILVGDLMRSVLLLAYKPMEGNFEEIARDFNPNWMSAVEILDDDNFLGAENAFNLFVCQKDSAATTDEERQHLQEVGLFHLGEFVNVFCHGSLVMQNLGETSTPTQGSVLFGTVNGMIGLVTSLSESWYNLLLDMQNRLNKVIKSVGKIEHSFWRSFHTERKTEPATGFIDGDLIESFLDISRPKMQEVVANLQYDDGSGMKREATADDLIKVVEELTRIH

Regarding m3; m4 HBx:96E; DDB1:M381/2, the percent of parent in assay [1] is 0.2%.
Consider N8-HBx (from UniProt P03165) 96E, for which, in assay [2], the percent of parent turned out to be 0.25%.
Turning to “N8-HBx (from UniProt P03165 1-154) (natural protein)”, in assay [3], the fold luminescence against wild type STAU1 worked out at 2 fold.
For the substance C10-DDB1 (from UniProt Q16531) M381/2, in assay [4], the percent of parent worked out at 0.68%.

The values above are taken from PMC9156947.
